The target in assay [1] is T1, rat amylin receptor (rat calcitonin receptor + rat RAMP 3) (rat, UniProt P32214 25-516; Q9JJ73 23-147).
T1 construct: whole, on cells; also called rAmylin-R; rat amylin 3(a) receptor
T1 sequence (looked up) 1: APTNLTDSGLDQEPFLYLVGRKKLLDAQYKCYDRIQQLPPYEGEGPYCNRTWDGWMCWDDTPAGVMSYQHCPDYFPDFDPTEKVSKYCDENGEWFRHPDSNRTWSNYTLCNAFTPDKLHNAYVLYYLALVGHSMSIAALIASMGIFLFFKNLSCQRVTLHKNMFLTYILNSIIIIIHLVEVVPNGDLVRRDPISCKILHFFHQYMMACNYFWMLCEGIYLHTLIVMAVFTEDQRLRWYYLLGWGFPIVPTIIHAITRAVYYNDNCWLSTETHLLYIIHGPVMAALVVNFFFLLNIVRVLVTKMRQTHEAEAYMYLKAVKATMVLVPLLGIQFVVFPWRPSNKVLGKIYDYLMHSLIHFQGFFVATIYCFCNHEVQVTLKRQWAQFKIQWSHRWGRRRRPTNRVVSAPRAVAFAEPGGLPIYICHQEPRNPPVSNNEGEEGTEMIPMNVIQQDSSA
T1 sequence (looked up) 2: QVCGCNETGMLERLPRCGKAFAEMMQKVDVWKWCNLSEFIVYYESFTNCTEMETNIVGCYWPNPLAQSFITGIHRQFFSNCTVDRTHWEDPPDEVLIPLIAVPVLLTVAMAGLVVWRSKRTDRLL
Nature of the assay: SPA competition with 125I-rat amylin, membranes of BHK cells with rat calcitonin receptor + rat RAMP3 (Assay VI).

Assay [2] deals with T2, rat calcitonin receptor (rat, UniProt P32214 25-516).
T2 construct: whole, on cells; also called rCTR; rat calcitonin (a) receptor
T2 sequence (looked up): T1 sequence (looked up) 1
Nature of the assay: ratio of binding IC50s: rat calcitonin receptor over rat amylin receptor (reference).

The target in assay [3] is T2, rat calcitonin receptor. Nature of the assay: SPA competition with 125I-calcitonin, membranes of BHK cells with rat calcitonin receptor (Assay VIII).
The target of assay [4] is T3, human calcitonin receptor (human, UniProt P30988 25-474).
T3 construct: whole, on cells; also called hCTR; hCT
T3 sequence (looked up): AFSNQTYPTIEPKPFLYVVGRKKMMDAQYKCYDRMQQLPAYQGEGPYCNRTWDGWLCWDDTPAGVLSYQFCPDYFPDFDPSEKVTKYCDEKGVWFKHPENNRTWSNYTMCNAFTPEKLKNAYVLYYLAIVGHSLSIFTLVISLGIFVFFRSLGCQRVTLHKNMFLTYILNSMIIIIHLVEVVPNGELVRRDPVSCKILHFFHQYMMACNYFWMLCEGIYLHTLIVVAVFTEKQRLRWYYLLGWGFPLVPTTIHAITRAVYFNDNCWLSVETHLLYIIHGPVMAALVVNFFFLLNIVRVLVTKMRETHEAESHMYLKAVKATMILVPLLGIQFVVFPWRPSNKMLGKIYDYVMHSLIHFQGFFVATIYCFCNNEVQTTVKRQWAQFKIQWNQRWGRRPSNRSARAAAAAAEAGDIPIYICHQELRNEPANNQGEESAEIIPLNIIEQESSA
Nature of the assay: ratio of binding IC50s: human calcitonin receptor over human amylin receptor (reference). As to the method: The resulting pellet was resuspended, homogenized and centrifuged (20.000 rpm, 15 min) in a buffer containing 20 mM Na-HEPES and 0.1 mM EDTA (pH 7.4, buffer 2). The resulting pellet was resuspended in buffer 2 and protein concentration was measured (BCA protein Assay, Pierce). The homogenate was kept cold during the whole procedure. The membranes were kept at −80° C. until use. The assay was performed in a 384 well Optiplate (PerkinElmer) in a total volume of 40 ul. Membranes were mixed with SPA beads. Final concentration of membranes 35 ng/μL final and SPA beads was 0.05 mg/well. Test-compounds were dissolved in DMSO and further diluted in assay buffer (50 mM Hepes, pH 7.4, 1 mM CaCl2, 5 mM MgCl₂, 0.1% OA and 0.02% Tween20). […] The final mixture was incubated with shaking at 400 rpm for 120 min at 25° C. prior to centrifugation (1500 rpm, 10 min). Samples were analyzed on TopCounter™ (Packard). The IC₅₀ was calculated using (one site binding competition analysis) GraphPad Prism5 as a measure of receptor affinity.
Membranes were prepared in the following way; the cells were rinsed with PBS and incubated with Versene for approximately 5 min before harvesting. The cells were flushed with PBS and the cell-suspension was centrifuged for 5 min at 1000 rpm. Cells were homogenized (Ultrathurrax) in a buffer containing 20 mM Na-HEPES and 10 mM EDTA (pH 7.4) and centrifuged at 20.000 rpm for 15 min. The resulting pellet was resuspended, homogenized and centrifuged (20.000 rpm, 15 min) in a buffer containing 20 mM Na-HEPES and 0.1 mM EDTA (pH 7.4, buffer 2). The resulting pellet was resuspended in buffer 2 and protein concentration was measured (BCA protein Assay, Pierce). The homogenate was kept cold during the whole procedure. The membranes were kept at −80° C. until use. Assay was performed in a 384 well Optiplate (PerkinElmer) in a total volume of 40 ul. Membranes were mixed with SPA beads.

In assay [5] the target is T4, rat calcitonin receptor (rat, UniProt P32214 25-516).
T4 construct: whole, on cells; Membranes of transiently transfected BHK tk'ts 13 cells (Assay VIII); also called rCTR
T4 sequence (looked up): T1 sequence (looked up) 1
Nature of the assay: SPA competition with 125I-calcitonin, membranes of BHK cells with rat calcitonin receptor (Assay VIII).

Assay [6] has as its target T5, rat amylin receptor (rat calcitonin receptor + rat RAMP 3) (rat, UniProt P32214 25-516; Q9JJ73 23-147).
T5 construct: whole, on cells; Membranes of transiently transfected BHK tk'ts 13 cells (Assay VI); also called rAmylin-R; rat amylin 3(a) receptor
T5 sequence (looked up) 1: T1 sequence (looked up) 1
T5 sequence (looked up) 2: T1 sequence (looked up) 2
Nature of the assay: SPA competition with 125I-rat amylin, membranes of BHK cells with rat calcitonin receptor + rat RAMP3 (Assay VI).

The target in assay [7] is T4, rat calcitonin receptor. Nature of the assay: ratio IC50 rat calcitonin receptor / IC50 rat amylin receptor (reference).
The target in assay [8] is T6, human calcitonin receptor (human, UniProt P30988 25-474).
T6 construct: whole, on cells; Membranes of a stably transfected BHK cell line (Assay VII); also called hCTR; hCT
T6 sequence (looked up): T3 sequence (looked up)
Nature of the assay: ratio IC50 human calcitonin receptor / IC50 human amylin receptor (reference). The gist of the method: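 IC₅₀ values were derived by one-site competition analysis of SPA counts. Cell membranes (35 ng/μL) with SPA beads were incubated with test compounds for 120 min at 25° C in Hepes buffer, pH 7.4, containing CaCl2, MgCl₂, OA and Tween20.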

Read-outs that look alike come from different tables or passages of the source. Numbered stars: 1 amine (or outer) side, 2 acyl side, 3 side chain; on linkers, the order of the positions; unused ones are H or OH. Bridge positions count the residues as written; N and C are the ends. Side chains are listed from the residue outwards. Ends that are not written are not given here. * marks the point of attachment. C20 diacid = O=C(O)CCCCCCCCCCCCCCCCCCC(=O)*; γGlu = O=C(O)[C@H](CCC(=O)[*:2])N[*:1]; AEEA = NCCOCCOCC(=O)O

B1: N^ε1-[2-[2-[2-[[(4S)-4-carboxy-4-(19-carboxynonadecanoylamino)butanoyl]amino]ethoxy]ethoxy]acetyl]-[His14,Arg17,Pro21,Pro27]-h-amylin (peptide)
peptide: K([AEEA-γGlu-C20 diacid])CNTATCATQRLAHFLRHSSPNFGAIPSSTNVGSNTY-NH2
modifications: disulfide 2-7; N-terminus assumed
SMILES: CC[C@H](C)[C@H](NC(=O)[C@H](C)NC(=O)CNC(=O)[C@H](Cc1ccccc1)NC(=O)[C@H](CC(N)=O)NC(=O)[C@@H]1CCCN1C(=O)[C@H](CO)NC(=O)[C@H](CO)NC(=O)[C@H](Cc1c[nH]cn1)NC(=O)[C@H](CCCNC(=N)N)NC(=O)[C@H](CC(C)C)NC(=O)[C@H](Cc1ccccc1)NC(=O)[C@H](Cc1c[nH]cn1)NC(=O)[C@H](C)NC(=O)[C@H](CC(C)C)NC(=O)[C@H](CCCNC(=N)N)NC(=O)[C@H](CCC(N)=O)NC(=O)[C@@H](NC(=O)[C@H](C)NC(=O)[C@@H]1CSSC[C@H](NC(=O)[C@@H](N)CCCCNC(=O)COCCOCCNC(=O)CC[C@H](NC(=O)CCCCCCCCCCCCCCCCCCC(=O)O)C(=O)O)C(=O)N[C@@H](CC(N)=O)C(=O)N[C@@H]([C@@H](C)O)C(=O)N[C@@H](C)C(=O)N[C@@H]([C@@H](C)O)C(=O)N1)[C@@H](C)O)C(=O)N1CCC[C@H]1C(=O)N[C@@H](CO)C(=O)N[C@@H](CO)C(=O)N[C@H](C(=O)N[C@@H](CC(N)=O)C(=O)N[C@H](C(=O)NCC(=O)N[C@@H](CO)C(=O)N[C@@H](CC(N)=O)C(=O)N[C@H](C(=O)N[C@@H](Cc1ccc(O)cc1)C(N)=O)[C@@H](C)O)C(C)C)[C@@H](C)O
notes: synthetic analogue of human amylin; also called compound 69
Broadly, the IC50 is the concentration needed to halve the response being measured. As to B1, the IC50 in assay [1] was found to be 0.45 nM; with rat calcitonin receptor [3], 46.8 nM. For the same molecule, the “Ratio rCT/rAmylin binding” value with rat calcitonin receptor [2] turned out to be 104. Besides, the “Ratio hCT/hAmylin binding” value in assay [4] worked out at 65.3.

B2: N^-1-[(4S)-4-carboxy-4-(19-carboxynonadecanoylamino)butanoyl]-Gly[Arg1,His14,Arg17,Pro21,Pro27,Pro34]-h-amylin (peptide)
peptide: {C20 diacid-γGlu}-GRCNTATCATQRLAHFLRHSSPNFGAIPSSTNVGPNTY-NH2
modifications: disulfide 3-8
SMILES: CC[C@H](C)[C@H](NC(=O)[C@H](C)NC(=O)CNC(=O)[C@H](Cc1ccccc1)NC(=O)[C@H](CC(N)=O)NC(=O)[C@@H]1CCCN1C(=O)[C@H](CO)NC(=O)[C@H](CO)NC(=O)[C@H](Cc1c[nH]cn1)NC(=O)[C@H](CCCNC(=N)N)NC(=O)[C@H](CC(C)C)NC(=O)[C@H](Cc1ccccc1)NC(=O)[C@H](Cc1c[nH]cn1)NC(=O)[C@H](C)NC(=O)[C@H](CC(C)C)NC(=O)[C@H](CCCNC(=N)N)NC(=O)[C@H](CCC(N)=O)NC(=O)[C@@H](NC(=O)[C@H](C)NC(=O)[C@@H]1CSSC[C@H](NC(=O)[C@H](CCCNC(=N)N)NC(=O)CNC(=O)CC[C@H](NC(=O)CCCCCCCCCCCCCCCCCCC(=O)O)C(=O)O)C(=O)N[C@@H](CC(N)=O)C(=O)N[C@@H]([C@@H](C)O)C(=O)N[C@@H](C)C(=O)N[C@@H]([C@@H](C)O)C(=O)N1)[C@@H](C)O)C(=O)N1CCC[C@H]1C(=O)N[C@@H](CO)C(=O)N[C@@H](CO)C(=O)N[C@H](C(=O)N[C@@H](CC(N)=O)C(=O)N[C@H](C(=O)NCC(=O)N1CCC[C@H]1C(=O)N[C@@H](CC(N)=O)C(=O)N[C@H](C(=O)N[C@@H](Cc1ccc(O)cc1)C(N)=O)[C@@H](C)O)C(C)C)[C@@H](C)O
For B2, the IC50 in the assay with rat calcitonin receptor [5] stood at 65.9 nM; in assay [6], 0.674 nM. Further, the “Ratio rCT/rAmylin binding” value with rat calcitonin receptor [7] is 97.7. Further, in assay [8], the “Ratio hCT/hAmylin binding” value was 36.2.

B3: N{-1}-[(4S)-4-carboxy-4-(19-carboxynonadecanoylamino)butanoyl]-Gly[Arg1,His14,Arg17,Pro21,Pro27]-h-amylin (peptide)
peptide: {C20 diacid-γGlu}-GRCNTATCATQRLAHFLRHSSPNFGAIPSSTNVGSNTY-NH2
modifications: disulfide 3-8
SMILES: CC[C@H](C)[C@H](NC(=O)[C@H](C)NC(=O)CNC(=O)[C@H](Cc1ccccc1)NC(=O)[C@H](CC(N)=O)NC(=O)[C@@H]1CCCN1C(=O)[C@H](CO)NC(=O)[C@H](CO)NC(=O)[C@H](Cc1c[nH]cn1)NC(=O)[C@H](CCCNC(=N)N)NC(=O)[C@H](CC(C)C)NC(=O)[C@H](Cc1ccccc1)NC(=O)[C@H](Cc1c[nH]cn1)NC(=O)[C@H](C)NC(=O)[C@H](CC(C)C)NC(=O)[C@H](CCCNC(=N)N)NC(=O)[C@H](CCC(N)=O)NC(=O)[C@@H](NC(=O)[C@H](C)NC(=O)[C@@H]1CSSC[C@H](NC(=O)[C@H](CCCNC(=N)N)NC(=O)CNC(=O)CC[C@H](NC(=O)CCCCCCCCCCCCCCCCCCC(=O)O)C(=O)O)C(=O)N[C@@H](CC(N)=O)C(=O)N[C@@H]([C@@H](C)O)C(=O)N[C@@H](C)C(=O)N[C@@H]([C@@H](C)O)C(=O)N1)[C@@H](C)O)C(=O)N1CCC[C@H]1C(=O)N[C@@H](CO)C(=O)N[C@@H](CO)C(=O)N[C@H](C(=O)N[C@@H](CC(N)=O)C(=O)N[C@H](C(=O)NCC(=O)N[C@@H](CO)C(=O)N[C@@H](CC(N)=O)C(=O)N[C@H](C(=O)N[C@@H](Cc1ccc(O)cc1)C(N)=O)[C@@H](C)O)C(C)C)[C@@H](C)O
notes: also called compound 99
Regarding B3, the results for the IC50 (with rat calcitonin receptor [5]; in assay [6]) were 216 nM and 2.7 nM, respectively. The “Ratio rCT/rAmylin binding” value in the assay with rat calcitonin receptor [7] was found to be 79.8. For the same molecule, in assay [8], the “Ratio hCT/hAmylin binding” value was determined as 100.

Source of the values: patent publication US20140087995A1 (published 2014).
